Laboratory results from the RNAGym collection of RNA variant scans (doi:10.7554/elife.80360).

B1: Hairpin Ribozyme (parent)
chain: GUCCUCUUUCACGUGCGCGUGAAAGAGAGAAGUGAACCAGAGAAACACACGUUGUGGUAUAUUACCUGGUA

Variants of: B1
Test: self-cleavage, relative activity (ratio to wild type); higher = more cleavage; co-transcriptional
Work on A41G G42U yielded a self-cleavage of 0.236.
A44C G54A gave a self-cleavage of 0.184.
A44C G54U showed a self-cleavage of 0.194.
For A44C G54C, the self-cleavage was 0.0581.
Variant A41U A49U has a self-cleavage of 0.725.
For G42A G54A, the self-cleavage was 0.153.
For G42A G54U, the self-cleavage was 0.136.
Variant G42A G54C has a self-cleavage of 0.168.
Variant A41C G68C has a self-cleavage of 0.225.
A41C G68U showed a self-cleavage of 0.177.
With A41C G68A the self-cleavage was 0.249.
Variant A43C A71G has a self-cleavage of 0.186.
Work on A41G A49C yielded a self-cleavage of 0.0938.
In the case of A44U C48G, the self-cleavage is reported as 0.12.
A43C U62G gave a self-cleavage of 0.257.
A45C A47G gave a self-cleavage of 0.0534.
A44C A59U showed a self-cleavage of 0.103.
With A43C U55A the self-cleavage was 0.174.
For A43C U55C, the self-cleavage was 0.201.
A44U C66G gave a self-cleavage of 0.183.
Variant A43G C50G has a self-cleavage of 0.133.
A41U C48A gave a self-cleavage of 0.31.
Work on A41U C48U yielded a self-cleavage of 0.132.
Variant A44U U62C has a self-cleavage of 0.0868.
Variant A44U U62G has a self-cleavage of 0.0672.
With A43C C65U the self-cleavage was 0.173.
Work on A43C C65G yielded a self-cleavage of 0.0609.
With A43C C65A the self-cleavage was 0.102.
For G42A U70A, the self-cleavage was 0.0455.
Variant A41C G57A has a self-cleavage of 0.128.
Work on A45C G51A yielded a self-cleavage of 0.0999.
With A43G A44C the self-cleavage was 0.0882.
Variant A43C G51A has a self-cleavage of 0.0814.
In the case of A43C G51C, the self-cleavage is reported as 0.193.
Variant A44C U60A has a self-cleavage of 0.172.
G42C G56U gave a self-cleavage of 0.117.
In the case of A43U U60G, the self-cleavage is reported as 0.0802.
Variant A43U C66G has a self-cleavage of 0.138.
Work on G42A G51U yielded a self-cleavage of 0.207.
With G42A G51A the self-cleavage was 0.25.
G42A G51C gave a self-cleavage of 0.21.
G42A U63A gave a self-cleavage of 0.174.
With A43C C66A the self-cleavage was 0.0928.
With A44G A71U the self-cleavage was 0.158.
Work on A41G G68A yielded a self-cleavage of 0.55.
A43G U55C showed a self-cleavage of 0.201.
For A43G U55A, the self-cleavage was 0.0267.
In the case of A44C G51C, the self-cleavage is reported as 0.289.
With A41G U70A the self-cleavage was 0.97.
Variant A41U A44U has a self-cleavage of 0.161.
In the case of A41U C65G, the self-cleavage is reported as 0.563.
For A44U U55A, the self-cleavage was 0.282.
Variant A41G C46U has a self-cleavage of 0.0954.
Variant A43G A61G has a self-cleavage of 0.188.
With A43G A61U the self-cleavage was 0.169.
For A44C G68U, the self-cleavage was 0.126.
For G42A U58A, the self-cleavage was 0.139.
G42A U58G showed a self-cleavage of 0.17.
For G42C A49G, the self-cleavage was 0.244.
G42C A49U showed a self-cleavage of 0.155.
In the case of A41U U63C, the self-cleavage is reported as 0.248.
A41U U63G showed a self-cleavage of 0.223.
In the case of A43G G69U, the self-cleavage is reported as 0.126.
Work on A41C U70C yielded a self-cleavage of 1.04.
For A43C U60C, the self-cleavage was 0.196.
A44G C48G gave a self-cleavage of 0.115.
Variant A44G C48U has a self-cleavage of 0.0899.
With A44U A45C the self-cleavage was 0.321.
Variant G42A C48A has a self-cleavage of 0.0835.
Work on A43U U55C yielded a self-cleavage of 0.0805.
With A43G G54A the self-cleavage was 0.066.
A44G U58G gave a self-cleavage of 0.198.
G42C A64C showed a self-cleavage of 0.252.
Work on G42C A64U yielded a self-cleavage of 0.0972.
In the case of A43U A49G, the self-cleavage is reported as 0.151.
Variant A44G A59C has a self-cleavage of 0.179.
For A44G A59U, the self-cleavage was 0.155.
G42A G57U gave a self-cleavage of 0.0918.
With A43C A44U the self-cleavage was 0.171.
A44C G56U gave a self-cleavage of 0.241.
In the case of A41U G56C, the self-cleavage is reported as 0.149.
For A43U G56A, the self-cleavage was 0.155.
Work on A41U U52G yielded a self-cleavage of 1.07.
